The values below come from CN107522783A (HUABO BIOPHARM MEDICINE TECH SHANGHAI CO LTD, dated 2017).

The target of assay [1] is T1, Recombinant mouse IL-17A (Sino Biological, PBV10159R-010) (mouse, UniProt Q62386 26-158).
T1 construct: Bought recombinant protein; also called 小鼠的IL-17A
T1 sequence (looked up): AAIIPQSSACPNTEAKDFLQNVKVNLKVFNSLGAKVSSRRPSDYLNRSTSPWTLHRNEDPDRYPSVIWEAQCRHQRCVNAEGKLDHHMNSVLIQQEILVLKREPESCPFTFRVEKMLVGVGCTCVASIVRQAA
Description: indirect ELISA, mouse IL-17A coated at 1 μg/ml; paragraph 219 says 与小鼠的IL-17A无结合. On the technique in general: ELISA stands for enzyme-linked immunosorbent assay.

Assay [2] addresses T2, Recombinant human IL-17A (Sino Biological, 12047-HNAS) (human, UniProt Q16552 24-155).
T2 construct: mature; Bought recombinant protein; also called 人IL-17A; huIL-17A
T2 sequence (looked up): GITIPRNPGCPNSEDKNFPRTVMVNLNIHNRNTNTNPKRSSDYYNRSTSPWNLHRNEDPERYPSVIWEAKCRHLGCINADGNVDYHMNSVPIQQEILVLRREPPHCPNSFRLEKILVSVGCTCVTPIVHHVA
Description: indirect ELISA, human IL-17A coated (Table 5, species cross-reactivity).

Assay [3] has as its target T2, Recombinant human IL-17A (Sino …). Description: indirect ELISA, human IL-17A coated at 1 μg/ml.
For assay [4] the target is unchanged. As to the kind of experiment: Biacore SPR, antibody captured on anti-human capture CM5 chip, IL-17A as analyte, 1:1 model. Background: SPR reads the build-up and loss of mass on a sensor chip optically.
Assay [5] has as its target T3, Recombinant marmoset IL-17A (Sino Biological, 90287-CNAE-100) (marmoset, UniProt A0ACM8QD00 24-153).
T3 construct: Bought recombinant protein; also called 狨猴IL-17A
T3 sequence: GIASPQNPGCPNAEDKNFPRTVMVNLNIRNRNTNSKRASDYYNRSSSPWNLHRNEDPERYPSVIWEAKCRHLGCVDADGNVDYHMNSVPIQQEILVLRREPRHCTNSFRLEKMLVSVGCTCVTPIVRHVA
Description: indirect ELISA, marmoset IL-17A coated (Table 6).

As a reminder, the EC50 is the concentration giving half of the maximal effect. By Kd is commonly meant a measure of binding affinity in units of concentration. One may read the koff as a measure of how fast the partners let go of each other. The term kon denotes the second-order rate constant of association.

B1: 嵌合抗体 (antibody, V domains shown)
VH: QVQLQQSGPEVVRPGVSVKISCKGSGYTFTDYAMHWVKQSHAKSLEWIGVIGPYNDNTNYNQKFKGKATMTVDKSSSTAYMEIARLTSEDSAIYYCARGERYFDYWGQGTTLTVSS
VL: DIQMTQSSSYLSVSLGGRVTITCRASDHINNWLAWYQQKPGNAPRLLIYGATSLETGVPSRFSGSGSGKDYTLSITSLQTEDVATYYCQQYWTIPLTFGAGTKLELK
notes: also called chimeric 14F10/9F6 antibody; 本发明嵌合抗体
With B1, in assay [1], the binding result is “no binding”. In addition, the EC50 in assay [2] amounted to 0.03 µg/mL; in assay [3], 0.03 µg/mL; in assay [5] it was 0.0264 µg/mL. Also, the Kd in assay [4] came to 0.097 nM. Besides, the koff in assay [4] came to 0.000101 s⁻¹. Besides, in assay [4], the association rate constant (kon) came out at 1.04e+06 M⁻¹ s⁻¹.

B2: 人源化抗体 (antibody, V domains shown)
VH: QVQLVQSGAEVKKPGASVKVSCKASGYTFTDYAMHWVRQAPGQGLEWMGVIGPYNDNTNYAQKFQGRVTMTVDTSTSTVYMELSSLRSEDTAIYYCARGERYFDYWGQGTTVTVSS
VL: DIQMTQSPSTLSASVGDRVTITCRASDHINNWLAWYQQKPGKAPKLLIYGATSLETGVPSRFSGSGSGTEYTLTISSLQPDDFATYYCQQYWTIPLTFGQGTKLEIK
notes: Expressed in CHO-K1; also called IL17-HC5-1D4/IL17-LC5-1C5; 本发明人源化抗体
For B2, in assay [4], the Kd was determined as 0.019 nM, the off-rate constant (koff) turned out to be 0.000181 s⁻¹ and the association rate constant (kon) was 9.56e+06 M⁻¹ s⁻¹.
